Test results taken from patent US20180155451A1 (published 2018).

Target: T1, FcγRIa extracellular domain with C-terminal His tag (human, UniProt P12314 16-292)
T1 construct: extracellular domain; also called FcgRI; CD64; not shown: His tag at the C terminus
Assay: SPR Biacore, relative FcγRIa binding vs GpH7-B3/GpL16-k0

T1 sequence (P12314 16-292): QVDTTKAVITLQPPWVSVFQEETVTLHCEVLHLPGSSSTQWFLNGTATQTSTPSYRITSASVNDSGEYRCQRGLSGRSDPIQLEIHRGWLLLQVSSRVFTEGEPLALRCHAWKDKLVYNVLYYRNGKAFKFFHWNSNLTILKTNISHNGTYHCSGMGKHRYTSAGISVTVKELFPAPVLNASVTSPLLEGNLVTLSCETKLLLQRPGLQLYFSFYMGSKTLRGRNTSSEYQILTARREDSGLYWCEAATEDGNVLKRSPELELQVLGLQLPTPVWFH

| Ho/Con_1a | Binder |
| --- | --- |
| 103 % of HoCon Ab (=100) | GpH7-B3 variant S324_08L/GpL16-k0 (antibody, human IgG1, kappa, mutation in both H chains; also called Ho Ab S324_08L; S324L) heavy: not shown light: DIVMTQSPLSLPVTPGEPASISCQASESLVHSNRNTYLHWYLQKPGQSPQLLIYKVSNRFSGVPDRFSGSGSGTDFTLKISRVEAEDVGVYYCSQNTHVPPTFGQGTKVEIERTVAAPSVFIFPPSDEQLKSGTASVVCLLNNFYPREAKVQWKVDNALQSGNSQESVTEQDSKDSTYSLSSTLTLSKADYEKHKVYACEVTHQGLSSPVTKSFNRGEC |
| 100 % of HoCon Ab (=100) | GpH7-B3 variant S324_11K/GpL16-k0 (antibody, human IgG1, kappa, mutation in both H chains; also called Ho Ab S324_11K; S324K) heavy: not shown light: DIVMTQSPLSLPVTPGEPASISCQASESLVHSNRNTYLHWYLQKPGQSPQLLIYKVSNRFSGVPDRFSGSGSGTDFTLKISRVEAEDVGVYYCSQNTHVPPTFGQGTKVEIERTVAAPSVFIFPPSDEQLKSGTASVVCLLNNFYPREAKVQWKVDNALQSGNSQESVTEQDSKDSTYSLSSTLTLSKADYEKHKVYACEVTHQGLSSPVTKSFNRGEC |
| 101 % of HoCon Ab (=100) | GpH7-B3 variant S324_12R/GpL16-k0 (antibody, human IgG1, kappa, mutation in both H chains; also called Ho Ab S324_12R; S324R) heavy: not shown light: DIVMTQSPLSLPVTPGEPASISCQASESLVHSNRNTYLHWYLQKPGQSPQLLIYKVSNRFSGVPDRFSGSGSGTDFTLKISRVEAEDVGVYYCSQNTHVPPTFGQGTKVEIERTVAAPSVFIFPPSDEQLKSGTASVVCLLNNFYPREAKVQWKVDNALQSGNSQESVTEQDSKDSTYSLSSTLTLSKADYEKHKVYACEVTHQGLSSPVTKSFNRGEC |
| 112 % of HoCon Ab (=100) | GpH7-B3 variant S324_14T/GpL16-k0 (antibody, human IgG1, kappa, mutation in both H chains; also called Ho Ab S324_14T; S324T) heavy: not shown light: DIVMTQSPLSLPVTPGEPASISCQASESLVHSNRNTYLHWYLQKPGQSPQLLIYKVSNRFSGVPDRFSGSGSGTDFTLKISRVEAEDVGVYYCSQNTHVPPTFGQGTKVEIERTVAAPSVFIFPPSDEQLKSGTASVVCLLNNFYPREAKVQWKVDNALQSGNSQESVTEQDSKDSTYSLSSTLTLSKADYEKHKVYACEVTHQGLSSPVTKSFNRGEC |
| 112 % of HoCon Ab (=100) | GpH7-B3 variant S324_15Y/GpL16-k0 (antibody, human IgG1, kappa, mutation in both H chains; also called Ho Ab S324_15Y; S324Y) heavy: not shown light: DIVMTQSPLSLPVTPGEPASISCQASESLVHSNRNTYLHWYLQKPGQSPQLLIYKVSNRFSGVPDRFSGSGSGTDFTLKISRVEAEDVGVYYCSQNTHVPPTFGQGTKVEIERTVAAPSVFIFPPSDEQLKSGTASVVCLLNNFYPREAKVQWKVDNALQSGNSQESVTEQDSKDSTYSLSSTLTLSKADYEKHKVYACEVTHQGLSSPVTKSFNRGEC |
| 111 % of HoCon Ab (=100) | GpH7-B3 variant S324_16H/GpL16-k0 (antibody, human IgG1, kappa, mutation in both H chains; also called Ho Ab S324_16H; S324H) heavy: not shown light: DIVMTQSPLSLPVTPGEPASISCQASESLVHSNRNTYLHWYLQKPGQSPQLLIYKVSNRFSGVPDRFSGSGSGTDFTLKISRVEAEDVGVYYCSQNTHVPPTFGQGTKVEIERTVAAPSVFIFPPSDEQLKSGTASVVCLLNNFYPREAKVQWKVDNALQSGNSQESVTEQDSKDSTYSLSSTLTLSKADYEKHKVYACEVTHQGLSSPVTKSFNRGEC |
| 111 % of HoCon Ab (=100) | GpH7-B3 variant S324_18N/GpL16-k0 (antibody, human IgG1, kappa, mutation in both H chains; also called Ho Ab S324_18N; S324N) heavy: not shown light: DIVMTQSPLSLPVTPGEPASISCQASESLVHSNRNTYLHWYLQKPGQSPQLLIYKVSNRFSGVPDRFSGSGSGTDFTLKISRVEAEDVGVYYCSQNTHVPPTFGQGTKVEIERTVAAPSVFIFPPSDEQLKSGTASVVCLLNNFYPREAKVQWKVDNALQSGNSQESVTEQDSKDSTYSLSSTLTLSKADYEKHKVYACEVTHQGLSSPVTKSFNRGEC |
| 111 % of HoCon Ab (=100) | GpH7-B3 variant S324_19Q/GpL16-k0 (antibody, human IgG1, kappa, mutation in both H chains; also called Ho Ab S324_19Q; S324Q) heavy: not shown light: DIVMTQSPLSLPVTPGEPASISCQASESLVHSNRNTYLHWYLQKPGQSPQLLIYKVSNRFSGVPDRFSGSGSGTDFTLKISRVEAEDVGVYYCSQNTHVPPTFGQGTKVEIERTVAAPSVFIFPPSDEQLKSGTASVVCLLNNFYPREAKVQWKVDNALQSGNSQESVTEQDSKDSTYSLSSTLTLSKADYEKHKVYACEVTHQGLSSPVTKSFNRGEC |
| 112 % of HoCon Ab (=100) | GpH7-B3 variant S324_20W/GpL16-k0 (antibody, human IgG1, kappa, mutation in both H chains; also called Ho Ab S324_20W; S324W) heavy: not shown light: DIVMTQSPLSLPVTPGEPASISCQASESLVHSNRNTYLHWYLQKPGQSPQLLIYKVSNRFSGVPDRFSGSGSGTDFTLKISRVEAEDVGVYYCSQNTHVPPTFGQGTKVEIERTVAAPSVFIFPPSDEQLKSGTASVVCLLNNFYPREAKVQWKVDNALQSGNSQESVTEQDSKDSTYSLSSTLTLSKADYEKHKVYACEVTHQGLSSPVTKSFNRGEC |
| 102 % of HoCon Ab (=100) | GpH7-B3 variant S337_01G/GpL16-k0 (antibody, human IgG1, kappa, mutation in both H chains; also called Ho Ab S337_01G; S337G) heavy: not shown light: DIVMTQSPLSLPVTPGEPASISCQASESLVHSNRNTYLHWYLQKPGQSPQLLIYKVSNRFSGVPDRFSGSGSGTDFTLKISRVEAEDVGVYYCSQNTHVPPTFGQGTKVEIERTVAAPSVFIFPPSDEQLKSGTASVVCLLNNFYPREAKVQWKVDNALQSGNSQESVTEQDSKDSTYSLSSTLTLSKADYEKHKVYACEVTHQGLSSPVTKSFNRGEC |
| 103 % of HoCon Ab (=100) | GpH7-B3 variant S337_02A/GpL16-k0 (antibody, human IgG1, kappa, mutation in both H chains; also called Ho Ab S337_02A; S337A) heavy: not shown light: DIVMTQSPLSLPVTPGEPASISCQASESLVHSNRNTYLHWYLQKPGQSPQLLIYKVSNRFSGVPDRFSGSGSGTDFTLKISRVEAEDVGVYYCSQNTHVPPTFGQGTKVEIERTVAAPSVFIFPPSDEQLKSGTASVVCLLNNFYPREAKVQWKVDNALQSGNSQESVTEQDSKDSTYSLSSTLTLSKADYEKHKVYACEVTHQGLSSPVTKSFNRGEC |
| 105 % of HoCon Ab (=100) | GpH7-B3 variant S337_03V/GpL16-k0 (antibody, human IgG1, kappa, mutation in both H chains; also called Ho Ab S337_03V; S337V) heavy: not shown light: DIVMTQSPLSLPVTPGEPASISCQASESLVHSNRNTYLHWYLQKPGQSPQLLIYKVSNRFSGVPDRFSGSGSGTDFTLKISRVEAEDVGVYYCSQNTHVPPTFGQGTKVEIERTVAAPSVFIFPPSDEQLKSGTASVVCLLNNFYPREAKVQWKVDNALQSGNSQESVTEQDSKDSTYSLSSTLTLSKADYEKHKVYACEVTHQGLSSPVTKSFNRGEC |
| 105 % of HoCon Ab (=100) | GpH7-B3 variant S337_04F/GpL16-k0 (antibody, human IgG1, kappa, mutation in both H chains; also called Ho Ab S337_04F; S337F) heavy: not shown light: DIVMTQSPLSLPVTPGEPASISCQASESLVHSNRNTYLHWYLQKPGQSPQLLIYKVSNRFSGVPDRFSGSGSGTDFTLKISRVEAEDVGVYYCSQNTHVPPTFGQGTKVEIERTVAAPSVFIFPPSDEQLKSGTASVVCLLNNFYPREAKVQWKVDNALQSGNSQESVTEQDSKDSTYSLSSTLTLSKADYEKHKVYACEVTHQGLSSPVTKSFNRGEC |
| 102 % of HoCon Ab (=100) | GpH7-B3 variant S337_06M/GpL16-k0 (antibody, human IgG1, kappa, mutation in both H chains; also called Ho Ab S337_06M; S337M) heavy: not shown light: DIVMTQSPLSLPVTPGEPASISCQASESLVHSNRNTYLHWYLQKPGQSPQLLIYKVSNRFSGVPDRFSGSGSGTDFTLKISRVEAEDVGVYYCSQNTHVPPTFGQGTKVEIERTVAAPSVFIFPPSDEQLKSGTASVVCLLNNFYPREAKVQWKVDNALQSGNSQESVTEQDSKDSTYSLSSTLTLSKADYEKHKVYACEVTHQGLSSPVTKSFNRGEC |
| 105 % of HoCon Ab (=100) | GpH7-B3 variant S337_07I/GpL16-k0 (antibody, human IgG1, kappa, mutation in both H chains; also called Ho Ab S337_07I; S337I) heavy: not shown light: DIVMTQSPLSLPVTPGEPASISCQASESLVHSNRNTYLHWYLQKPGQSPQLLIYKVSNRFSGVPDRFSGSGSGTDFTLKISRVEAEDVGVYYCSQNTHVPPTFGQGTKVEIERTVAAPSVFIFPPSDEQLKSGTASVVCLLNNFYPREAKVQWKVDNALQSGNSQESVTEQDSKDSTYSLSSTLTLSKADYEKHKVYACEVTHQGLSSPVTKSFNRGEC |
| 105 % of HoCon Ab (=100) | GpH7-B3 variant S337_08L/GpL16-k0 (antibody, human IgG1, kappa, mutation in both H chains; also called Ho Ab S337_08L; S337L) heavy: not shown light: DIVMTQSPLSLPVTPGEPASISCQASESLVHSNRNTYLHWYLQKPGQSPQLLIYKVSNRFSGVPDRFSGSGSGTDFTLKISRVEAEDVGVYYCSQNTHVPPTFGQGTKVEIERTVAAPSVFIFPPSDEQLKSGTASVVCLLNNFYPREAKVQWKVDNALQSGNSQESVTEQDSKDSTYSLSSTLTLSKADYEKHKVYACEVTHQGLSSPVTKSFNRGEC |
